The results in this text go back to patent US20140087995A1 (published 2014).

Numbered stars: 1 amine (or outer) side, 2 acyl side, 3 side chain; on linkers, the order of the positions; unused ones are H or OH. Bridge positions count the residues as written; N and C are the ends. Side chains are listed from the residue outwards. Ends that are not written are not given here. * marks the point of attachment. C20 diacid = O=C(O)CCCCCCCCCCCCCCCCCCC(=O)*; γGlu = O=C(O)[C@H](CCC(=O)[*:2])N[*:1]; AEEA = NCCOCCOCC(=O)O

T1: human amylin receptor (amylin 3(a) receptor: human calcitonin receptor with RAMP-3) (human, UniProt P30988 25-474; O60896 24-148)
T1 sequence (looked up) 1: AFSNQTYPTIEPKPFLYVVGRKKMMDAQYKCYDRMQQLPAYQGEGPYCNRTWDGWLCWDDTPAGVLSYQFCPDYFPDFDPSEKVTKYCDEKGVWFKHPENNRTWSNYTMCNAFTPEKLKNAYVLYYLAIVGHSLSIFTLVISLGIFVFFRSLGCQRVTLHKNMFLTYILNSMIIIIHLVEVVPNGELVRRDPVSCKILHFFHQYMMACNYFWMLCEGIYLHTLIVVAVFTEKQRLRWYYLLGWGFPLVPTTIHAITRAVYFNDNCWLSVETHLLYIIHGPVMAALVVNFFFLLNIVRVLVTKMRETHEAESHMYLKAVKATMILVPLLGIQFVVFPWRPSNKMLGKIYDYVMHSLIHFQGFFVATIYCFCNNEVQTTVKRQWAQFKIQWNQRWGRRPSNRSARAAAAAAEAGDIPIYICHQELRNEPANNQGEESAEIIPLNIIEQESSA
T1 sequence (looked up) 2: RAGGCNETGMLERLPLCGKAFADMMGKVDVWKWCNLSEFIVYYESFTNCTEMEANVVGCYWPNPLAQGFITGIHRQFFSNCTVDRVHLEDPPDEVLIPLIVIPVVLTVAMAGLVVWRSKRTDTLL

T2: human calcitonin receptor (human, UniProt P30988 25-474)
T2 sequence (looked up): T1 sequence (looked up) 1

B1: N^α1N^α1-[(4S)-4-carboxy-4-(19-carboxynonadecanoylamino)butanoyl]-[Glu14,Arg17,Pro21,Pro27,Glu35]-h-amylin (peptide)
peptide: {C20 diacid-γGlu}-KCNTATCATQRLAEFLRHSSPNFGAIPSSTNVGSETY-NH2
modifications: disulfide 2-7
SMILES: CC[C@H](C)[C@H](NC(=O)[C@H](C)NC(=O)CNC(=O)[C@H](Cc1ccccc1)NC(=O)[C@H](CC(N)=O)NC(=O)[C@@H]1CCCN1C(=O)[C@H](CO)NC(=O)[C@H](CO)NC(=O)[C@H](Cc1c[nH]cn1)NC(=O)[C@H](CCCNC(=N)N)NC(=O)[C@H](CC(C)C)NC(=O)[C@H](Cc1ccccc1)NC(=O)[C@H](CCC(=O)O)NC(=O)[C@H](C)NC(=O)[C@H](CC(C)C)NC(=O)[C@H](CCCNC(=N)N)NC(=O)[C@H](CCC(N)=O)NC(=O)[C@@H](NC(=O)[C@H](C)NC(=O)[C@@H]1CSSC[C@H](NC(=O)[C@H](CCCCN)NC(=O)CC[C@H](NC(=O)CCCCCCCCCCCCCCCCCCC(=O)O)C(=O)O)C(=O)N[C@@H](CC(N)=O)C(=O)N[C@@H]([C@@H](C)O)C(=O)N[C@@H](C)C(=O)N[C@@H]([C@@H](C)O)C(=O)N1)[C@@H](C)O)C(=O)N1CCC[C@H]1C(=O)N[C@@H](CO)C(=O)N[C@@H](CO)C(=O)N[C@H](C(=O)N[C@@H](CC(N)=O)C(=O)N[C@H](C(=O)NCC(=O)N[C@@H](CO)C(=O)N[C@@H](CCC(=O)O)C(=O)N[C@H](C(=O)N[C@@H](Cc1ccc(O)cc1)C(N)=O)[C@@H](C)O)C(C)C)[C@@H](C)O
notes: also called compound 22
B2: N^ε1-[(4S)-4-carboxy-4-(19-carboxynonadecanoylamino)butanoyl]-[Arg17,Pro21,Pro27,Glu35]-h-amylin (peptide)
peptide: K([γGlu-C20 diacid])CNTATCATQRLANFLRHSSPNFGAIPSSTNVGSETY-NH2
modifications: disulfide 2-7; N-terminus assumed
SMILES: CC[C@H](C)[C@H](NC(=O)[C@H](C)NC(=O)CNC(=O)[C@H](Cc1ccccc1)NC(=O)[C@H](CC(N)=O)NC(=O)[C@@H]1CCCN1C(=O)[C@H](CO)NC(=O)[C@H](CO)NC(=O)[C@H](Cc1c[nH]cn1)NC(=O)[C@H](CCCNC(=N)N)NC(=O)[C@H](CC(C)C)NC(=O)[C@H](Cc1ccccc1)NC(=O)[C@H](CC(N)=O)NC(=O)[C@H](C)NC(=O)[C@H](CC(C)C)NC(=O)[C@H](CCCNC(=N)N)NC(=O)[C@H](CCC(N)=O)NC(=O)[C@@H](NC(=O)[C@H](C)NC(=O)[C@@H]1CSSC[C@H](NC(=O)[C@@H](N)CCCCNC(=O)CC[C@H](NC(=O)CCCCCCCCCCCCCCCCCCC(=O)O)C(=O)O)C(=O)N[C@@H](CC(N)=O)C(=O)N[C@@H]([C@@H](C)O)C(=O)N[C@@H](C)C(=O)N[C@@H]([C@@H](C)O)C(=O)N1)[C@@H](C)O)C(=O)N1CCC[C@H]1C(=O)N[C@@H](CO)C(=O)N[C@@H](CO)C(=O)N[C@H](C(=O)N[C@@H](CC(N)=O)C(=O)N[C@H](C(=O)NCC(=O)N[C@@H](CO)C(=O)N[C@@H](CCC(=O)O)C(=O)N[C@H](C(=O)N[C@@H](Cc1ccc(O)cc1)C(N)=O)[C@@H](C)O)C(C)C)[C@@H](C)O
notes: also called compound 27
B3: N^ε1-[2-[2-[2-[[(4S)-4-carboxy-4-(19-carboxynonadecanoylamino)butanoyl]amino]ethoxy]ethoxy]acetyl]-[Arg17,Pro21,Pro27,Glu35]-h-amylin (peptide)
peptide: K([AEEA-γGlu-C20 diacid])CNTATCATQRLANFLRHSSPNFGAIPSSTNVGSETY-NH2
modifications: disulfide 2-7; N-terminus assumed
SMILES: CC[C@H](C)[C@H](NC(=O)[C@H](C)NC(=O)CNC(=O)[C@H](Cc1ccccc1)NC(=O)[C@H](CC(N)=O)NC(=O)[C@@H]1CCCN1C(=O)[C@H](CO)NC(=O)[C@H](CO)NC(=O)[C@H](Cc1c[nH]cn1)NC(=O)[C@H](CCCNC(=N)N)NC(=O)[C@H](CC(C)C)NC(=O)[C@H](Cc1ccccc1)NC(=O)[C@H](CC(N)=O)NC(=O)[C@H](C)NC(=O)[C@H](CC(C)C)NC(=O)[C@H](CCCNC(=N)N)NC(=O)[C@H](CCC(N)=O)NC(=O)[C@@H](NC(=O)[C@H](C)NC(=O)[C@@H]1CSSC[C@H](NC(=O)[C@@H](N)CCCCNC(=O)COCCOCCNC(=O)CC[C@H](NC(=O)CCCCCCCCCCCCCCCCCCC(=O)O)C(=O)O)C(=O)N[C@@H](CC(N)=O)C(=O)N[C@@H]([C@@H](C)O)C(=O)N[C@@H](C)C(=O)N[C@@H]([C@@H](C)O)C(=O)N1)[C@@H](C)O)C(=O)N1CCC[C@H]1C(=O)N[C@@H](CO)C(=O)N[C@@H](CO)C(=O)N[C@H](C(=O)N[C@@H](CC(N)=O)C(=O)N[C@H](C(=O)NCC(=O)N[C@@H](CO)C(=O)N[C@@H](CCC(=O)O)C(=O)N[C@H](C(=O)N[C@@H](Cc1ccc(O)cc1)C(N)=O)[C@@H](C)O)C(C)C)[C@@H](C)O
notes: also called compound 26
B4: N^ε1-[2-[2-[2-[[2-[2-[2-[[(4S)-4-carboxy-4-(19-carboxynonadecanoylamino)butanoyl]amino]ethoxy]ethoxy]acetyl]amino]ethoxy]ethoxy]acetyl]-[Arg17,Pro21,Pro27,Glu35 … (peptide)
peptide: K([AEEA-AEEA-γGlu-C20 diacid])CNTATCATQRLANFLRHSSPNFGAIPSSTNVGSETY-NH2
modifications: disulfide 2-7; N-terminus assumed
SMILES: CC[C@H](C)[C@H](NC(=O)[C@H](C)NC(=O)CNC(=O)[C@H](Cc1ccccc1)NC(=O)[C@H](CC(N)=O)NC(=O)[C@@H]1CCCN1C(=O)[C@H](CO)NC(=O)[C@H](CO)NC(=O)[C@H](Cc1c[nH]cn1)NC(=O)[C@H](CCCNC(=N)N)NC(=O)[C@H](CC(C)C)NC(=O)[C@H](Cc1ccccc1)NC(=O)[C@H](CC(N)=O)NC(=O)[C@H](C)NC(=O)[C@H](CC(C)C)NC(=O)[C@H](CCCNC(=N)N)NC(=O)[C@H](CCC(N)=O)NC(=O)[C@@H](NC(=O)[C@H](C)NC(=O)[C@@H]1CSSC[C@H](NC(=O)[C@@H](N)CCCCNC(=O)COCCOCCNC(=O)COCCOCCNC(=O)CC[C@H](NC(=O)CCCCCCCCCCCCCCCCCCC(=O)O)C(=O)O)C(=O)N[C@@H](CC(N)=O)C(=O)N[C@@H]([C@@H](C)O)C(=O)N[C@@H](C)C(=O)N[C@@H]([C@@H](C)O)C(=O)N1)[C@@H](C)O)C(=O)N1CCC[C@H]1C(=O)N[C@@H](CO)C(=O)N[C@@H](CO)C(=O)N[C@H](C(=O)N[C@@H](CC(N)=O)C(=O)N[C@H](C(=O)NCC(=O)N[C@@H](CO)C(=O)N[C@@H](CCC(=O)O)C(=O)N[C@H](C(=O)N[C@@H](Cc1ccc(O)cc1)C(N)=O)[C@@H](C)O)C(C)C)[C@@H](C)O
notes: also called compound 25

In one experiment the target is T1, human amylin receptor (amylin 3(a) …). The experiment in a line: cell-based or functional assay.
As for B1, the “hAmylin-R funct. EC50” value was found to be 0.27 nM.
As for B2, the “hAmylin-R funct. EC50” value is 0.133 nM.
For B3, the “hAmylin-R funct. EC50” value worked out at 0.212 nM.
Take B4: the “hAmylin-R funct. EC50” value was 0.217 nM.

A further experiment deals with T2, human calcitonin receptor. The experiment in a line: cell-based or functional assay.
As for B1, the “Ratio hCT/hAmylin funct.” value stood at 3.8 and the “hCTR funct. EC50” value came to 1.03 nM.
Taken in the same sequence, the figures for B2 were 22.6 and 3 nM.
In the same order, the values of B3 are 29.9 and 6.34 nM.
Taken in the same sequence, the figures for B4 were 46.2 and 10 nM.
